Square brackets hold non-standard residues; d marks the D form. Ends that are not written are not given here. Peptide text beside a SMILES is read from it. pS = N[C@@H](COP(=O)(O)O)C(=O)O
How the values were obtained:
[1] = biological target: T1, GST-TMEM97 (108-176) (Homo sapiens, UniProt Q5BJF2); test: Surface plasmon resonance, immobilized GST-TMEM97 (108-176); assay type: binding; settings: SPR
T1 construct: GST-TMEM97 (108-176, recombinant GST-C terminal from wheat germ); purchased Abnova (Taipei City, Taiwan); host or cells: wheat germ (cell-free)
Protocol: (§1) Surface Plasmon Resonance (SPR). Recombinant full-length TMEM97 (also called MAC30, from HEK293 cells) and GST-TMEM97 (108-176, recombinant GST-C terminal from wheat germ) proteins were purchased from OriGene (Rockville, Md.) and Abnova (Taipei City, Taiwan), respectively. Three peptides, TMEM97 (108-176), TMEM97 (108-143) and TMEM97 (144-176), were synthesized. All proteins and peptides were initially prepared in HBS buffer containing 10 mM HEPES, pH 7.4, 150 mM NaCl, and 0.05% surfactant P20. The CM5 sensor surface was first activated by 1-ethyl-3-(3-dimethylaminopropyl) carbodiimide hydrochloride (EDC)/N-hydroxy succinimide (NHS) mixture using a Biacore T200 or Biacore 8K instrument (GE Healthcare). […] Flow channels 1 and 3 were used as references.
(§2) The three synthesized peptides were diluted to 50 μg/mL in 10 mM sodium acetate at pH 4.0 and immobilized to flow channels 2, 3 and 4, respectively, on another sensor chip. The unmodified surfaces on a flow channel 1 were used as a reference control. Histatin solutions with a series of increasing concentrations (0.78-25 μM at 2-fold dilution) were applied to all four channels at a 30 μL/minute flow rate at 25° C. The data were double-referenced with reference channel and zero concentration responses, and reference subtracted sensorgrams were fitted with 1 to 1 Langmuir kinetic model using a Biacore T200 evaluation software V3.0 or Insight evaluation software. The equilibrium dissociation constants ([…]) were determined from two rate constants (KD=kd/ka).
(§3) To determine the region(s) of Hst1 that mediate binding to TMEM97, SPR testing was performed with various Hst1 fragments and either recombinant TMEM97 (GST-tagged, wheat-germ derived, C-terminal fragment TMEM97 (108-176)) or synthesized TMEM97 (TMEM97 (108-176), TMEM97 (108-143) and TMEM97 (144-176)).

[2] = biological target: T2, Synthetic TMEM97 (108-176) (Homo sapiens, UniProt Q5BJF2); test: Surface plasmon resonance, immobilized synthetic TMEM97 (108-176); assay type: binding; settings: SPR
T2 construct: Three peptides, TMEM97 (108-176), TMEM97 (108-143) and TMEM97 (144-176), were synthesized; made in house; host or cells: chemical solid-phase synthesis (Fmoc, Wang resin)
Protocol: as §1, §2
(§4) To determine more precisely which segment of TMEM97 is necessary for binding of Hst1, multiple synthetic fragments of TMEM97 were generated (Table 6) and binding to Hst1 was tested using SPR. […] Smaller fragments of the C-terminal of TMEM97 were then constructed to represent the (predicted) luminal (108-143) and cytoplasmic (144-176) exposed segments of the C-terminus of TMEM97 based on modeling experiments previously described. […] SPR results for Hst1 were confirmed using ITC as an orthogonal analytical method.
as §3

[3] = biological target: T3, Synthetic TMEM97 (144-176) (Homo sapiens, UniProt Q5BJF2); test: Surface plasmon resonance, immobilized synthetic TMEM97 (144-176); assay type: binding; settings: SPR
T3 construct: made in house; host or cells: chemical solid-phase synthesis (Fmoc, Wang resin)
Protocol: as §1, §2, §4, §3

[4] = biological target: T4, Synthetic TMEM97 (108-143) (Homo sapiens, UniProt Q5BJF2); test: Surface plasmon resonance, immobilized synthetic TMEM97 (108-143); assay type: binding; settings: SPR
T4 construct: made in house; host or cells: chemical solid-phase synthesis (Fmoc, Wang resin)
Protocol: as §1, §2, §4, §3

[5] = biological target: T5, full-length recombinant TMEM97 (HEK293 cells) (Homo sapiens, UniProt Q5BJF2); test: Surface plasmon resonance, immobilized full-length TMEM97; assay type: binding; settings: SPR
T5 construct: Recombinant full-length TMEM97 (also called MAC30, from HEK293 cells); purchased OriGene (Rockville, Md.); host or cells: HEK293 cells
T5 sequence (Q5BJF2 whole entry): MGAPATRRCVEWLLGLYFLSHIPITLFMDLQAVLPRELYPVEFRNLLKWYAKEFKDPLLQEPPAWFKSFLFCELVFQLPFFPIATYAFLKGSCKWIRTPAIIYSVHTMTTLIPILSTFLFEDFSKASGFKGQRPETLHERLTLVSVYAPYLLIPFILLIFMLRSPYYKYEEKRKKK
Protocol: The three synthesized peptides were diluted to 50 μg/mL in 10 mM sodium acetate at pH 4.0 and immobilized to flow channels 2, 3 and 4, respectively, on another sensor chip. The unmodified surfaces on a flow channel 1 were used as a reference control. […] The data were double-referenced with reference channel and zero concentration responses, and reference subtracted sensorgrams were fitted with 1 to 1 Langmuir kinetic model using a Biacore T200 evaluation software V3.0 or Insight evaluation software. The equilibrium dissociation constants (K&) were determined from two rate constants (KD=kd/ka).

[6] = tested on: HCE cells; test: Immunofluorescence imaging of internalization and localization; assay type: cell-based, human; settings: 24 hours after exposure
Protocol: Immunofluorescence Imaging. HCE cells were seeded on glass coverslips (Fisher Scientific Co.; Pittsburgh, Pa.) within a 6-well plate at 3×10^5 (cells/well) seeding density. […] HCE cells were then fixed in 3.7% paraformaldehyde, permeabilized with phosphate-buffered saline (PBS) containing 0.2% TRITON™ X-100 for 5 minutes, and washed three times for 5 minutes each time in PBS. For blocking, cells were and incubated at room temperature for 30 minutes with 5% bovine serum albumin (BSA) and 5% normal goat serum in PBS. For the Endoplasmic Reticulum (ER) staining, a Cytopainter ER staining kit (Abcam; Cambridge, Mass.) was used, following the manufacturer's instructions. After washing with 1×Assay buffer, cells were incubated with Green Detection Reagent to cover the monolayer of cells. For the detection of Hst1 and TMEM97, mouse anti-Hst1 antibody (Abcam; Cambridge, Mass.), rabbit primary antibody against Hst1 (Mybiosource; San Diego, Calif.), and rabbit anti-TMEM97 antibody (Novus Bio.; Littleton, Colo.) were used. Cells were incubated overnight at 4° C. with primary antibodies, washed three times for 5 minutes each time in PBS before incubation with secondary antibodies for 30 minutes. Cells were then counterstained with 1 μg/mL 4′,6-diamidino-2-phenylindole (DAPI) solution in PBS for 3 minutes, then washed three times with PBS containing 0.05% TRITON™ X-100 for 5 minutes each time, twice with PBS for 5 minutes each time, and once with distilled water for 10 seconds. The cells were mounted in Fluoro gel with Tris buffer (Electron Microscopy Sciences; Hatfield, Pa.) and observed under a confocal microscope (Zeiss LSM 710 Confocal Microscope; Oberkochen, Germany) using a 40×objective. Fluorescent dye sold under the tradename ALEXA FLUOR® 488 NHS Ester (Molecular Probes; Carlsbad, Calif.) was used for making Alexa-488 coupled synthetic Hst1.
Transfection/Knock-Down of TMEM97. Sub-confluent monolayers of HCE cells in grown in 35-mm six-well plates were transfected with reaction mixtures composed of 100 pmol of small interfering RNA (siRNA) to TMEM97 (Santa Cruz Biotechnology; Dallas, Tex.) for 48 hours and 5 μL of transfection reagent sold under the tradename LIPOFECTAMINE® 2000 (Invitrogen; Carlsbad, Calif.) in culture medium sold under the tradename OPTI-MEMO media (Gibco Life Technologies; Grand Island, N.Y.). Complexes were incubated for 20 minutes at 24° C. and then added to cells at 37° C. Incubation was continued for 24 to 48 hours at 37° C. in 5% CO2. Knock-down (KD) of TMEM97 was confirmed by western blot analysis using a rabbit anti-TMEM97 antibody (Novus Bio.; Littleton, Colo.). […]

[7] = biological target: T6, Synthetic TMEM97 (144-176) peptide; test: SPR
T6 construct: Synthetic peptide; also called (predicted) cytoplasmic segment
T6 peptide: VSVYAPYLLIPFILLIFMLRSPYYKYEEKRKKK

[8] = biological target: T7, Synthetic TMEM97 (108-176) peptide; test: SPR
T7 construct: Synthetic peptide; also called full C-terminal synthetic TMEM97
T7 peptide: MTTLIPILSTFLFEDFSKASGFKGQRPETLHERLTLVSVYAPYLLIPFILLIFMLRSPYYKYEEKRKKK

[9] = biological target: T8, GST-TMEM97 (108-176), recombinant from wheat germ (Abnova) (UniProt Q5BJF2 108-176); test: SPR
T8 construct: not shown: GST tag

[10] = Circular dichroism secondary structure analysis (DichroWeb); assay type: physicochemical
Protocol: Circular Dichroism (CD). CD analysis was performed on a Jasco 815 CD spectrometer at room temperature. TMEM97 (108-176) and Hst1 full-length peptides were prepared as 10 mM stock in 25% DMSO and water, respectively, and diluted to 0.15 mg/mL final concentration in 10 mM […] buffer. A total of 400 μL of each sample was added into a 1 mm quartz sample cell, and CD spectra were recorded from 260 nm to 190 nm wavelength. Data points were measure in 0.5 nm wavelength step at a scanning speed of 100 nm/minute. A total of five spectra were acquired for each sample and averaged. […] buffer without peptide was used as a control curve, which was subsequently subtracted from the CD spectra of peptide samples. The resulting buffer control subtracted CD intensity row data in millidegrees were submitted to DichroWeb and fitted with multiple embedded models and converted to mean residue ellipticity.
Subsequently, the hypothesis that interaction between Hst1 and TMEM97 could affect the structure of each protein was tested. Also, the secondary structure of Hst1 and TMEM97 was tested in solution using CD measurements. It was noted that Hst1 alone is mostly disordered (over 50%) with some degree of β-strand, while TMEM97 (108-176) contains some α-helical and β-strand regions with ˜34% disordered regions. According to CD spectra comparison, there seemed to be more secondary structures formed upon Hst1 binding to TMEM97 (108-176).

[11] = CD, fraction of secondary structure

N=C(N)NCCC[C@H](NC(=O)[C@H](Cc1ccc(O)cc1)NC(=O)CNC(=O)[C@H](Cc1c[nH]cn1)NC(=O)[C@H](Cc1c[nH]cn1)NC(=O)[C@H](CCCNC(=N)N)NC(=O)[C@H](CCCCN)NC(=O)[C@H](CCC(=O)O)NC(=O)[C@H](Cc1c[nH]cn1)NC(=O)[C@H](COP(=O)(O)O)NC(=O)[C@@H](N)CC(=O)O)C(=O)N[C@@H](CCCNC(=N)N)C(=O)N[C@@H](CCCCN)C(=O)N[C@@H](Cc1ccccc1)C(=O)N[C@@H](Cc1c[nH]cn1)C(=O)N[C@@H](CCC(=O)O)C(=O)N[C@@H](CCCCN)C(=O)N[C@@H](Cc1c[nH]cn1)C(=O)N[C@@H](Cc1c[nH]cn1)C(=O)O [Hst1(1-19)] (H-D[pS]HEKRHHGYRRKFHEKHH-OH)
% Rmax [1]: (% Rmax = 32%) | % Rmax [2]: (% Rmax = 19%) | % Rmax [3]: (% Rmax = 16%)

N=C(N)NCCC[C@H](NC(=O)[C@H](Cc1ccc(O)cc1)NC(=O)CNC(=O)[C@H](Cc1c[nH]cn1)NC(=O)[C@H](Cc1c[nH]cn1)NC(=O)[C@H](CCCNC(=N)N)NC(=O)[C@H](CCCCN)NC(=O)[C@H](CCC(=O)O)NC(=O)[C@H](Cc1c[nH]cn1)NC(=O)[C@H](COP(=O)(O)O)NC(=O)[C@@H](N)CC(=O)O)C(=O)N[C@@H](CCCNC(=N)N)C(=O)N[C@@H](CCCCN)C(=O)N[C@@H](Cc1ccccc1)C(=O)N[C@@H](Cc1c[nH]cn1)C(=O)N[C@@H](CCC(=O)O)C(=O)N[C@@H](CCCCN)C(=O)N[C@@H](Cc1c[nH]cn1)C(=O)N[C@@H](Cc1c[nH]cn1)C(=O)N[C@@H](CO)C(=O)N[C@@H](Cc1c[nH]cn1)C(=O)N[C@@H](CCCNC(=N)N)C(=O)N[C@@H](CCC(=O)O)C(=O)N[C@@H](Cc1ccccc1)C(=O)N1CCC[C@H]1C(=O)N[C@@H](Cc1ccccc1)C(=O)O [Hst1(1-26)] (H-D[pS]HEKRHHGYRRKFHEKHHSHREFPF-OH)
% Rmax [1]: (% Rmax = 24%) | % Rmax [2]: (% Rmax = 8%) | KD / binding [4]: No binding | % Rmax [3]: (% Rmax = 4%)

HYHKFHRYYDPGSNLYKEHNHGFHHGYKDEFRREpSRDS (HYHKFHRYYDPGSNLYKEHNHGFHHGYKDEFRRE[pS]RDS) [reference compound]
% Rmax [5]: 8% | KD ([5]; 25° C., 1 to 1 Langmuir kinetic model): No binding | % Rmax [1]: 5% | KD [1]: No binding

Hst1(1-14): Hst1 fragment, residues 1-14 (DSHEKRHHGYRRKF)
KD [2]: No binding | KD / binding [4]: No binding | KD [3]: No binding

Hst1(15-38): Hst1 fragment, residues 15-38 (HEKHHSHREFPFYGDYGSNYLYDN)
KD [1]: No binding | KD [2]: No binding | KD [3]: No binding

Hst1(20-32): Hst1 fragment, residues 20-32 (SHREFPFYGDYGS)
KD [3]: No binding

fluorescent dye-coupled synthetic Hst1: synthetic Hst1 coupled with ALEXA FLUOR 488 NHS Ester (D[pS]HEKRHHGYRRKFHEKHHSHREFPFYGDYGSNYLYDN; also: coupled with Alexa Fluor 488 NHS ester, site not given here; UniProt P15515 20-57, looked up)
internalization into cells [6]: internalized into HCE cells

SHREFPFYGDYGS (Fragment of Hst1) [Hst1(20-32)]
binding result [7]: no binding

HEKHHSHREFPFYGDYGSNYLYDN (Fragment of Hst1) [Hst1(15-38)]
binding result [7]: no binding | binding result [8]: no binding

DSHEKRHHGYRRKFHEKHH (not fully specified (residue 2); ends and bridges not checked) [Hst1(1-19)]
Kd [7]: 8.8 µM | Kd [9]: 3.6 µM | Kd [8]: 12.7 µM

B1: MTTLIPILSTFLFEDFSKASGFKGQRPETLHERLTLVSVYAPYLLIPFILLIFMLRSPYYKYEEKRKKK (peptide)
chain: T7 peptide
disordered regions ([10]; CD in solution): ~34% | Helix [10, 11]: 0.14 | Strand [10, 11]: 0.31 | Turns [10, 11]: 0.21 | Unordered [10, 11]: 0.34
